Measurements: paper PMC10116596 (Biochemistry, 2023)

B1: LcrH: class II chaperone from Yersina Sp., forms weak homodimers when unbound (protein)
chain: MQQETTDTQEYQLAMESFLKGGGTIAMLNEISSDTLEQLYSLAFNQYQSGKYEDAHKVFQALCVLDHYDSRFFLGLGACRQAMGQYDLAIHSYSYGAIMDIKEPRFPFHAAECLLQKGELAEAESGLFLAQELIADKTEFKELSTRVSSMLEAIKLKKEMEHECVDNP

Assays:
[1] = biological target: T1, LcrH_(1–168), class II chaperone LcrH from Y. pestis (Y. pestis, UniProt P21207 1-168); assay: ITC; details: both partners purified
T1 construct: also called LcrH/SycD
T1 sequence: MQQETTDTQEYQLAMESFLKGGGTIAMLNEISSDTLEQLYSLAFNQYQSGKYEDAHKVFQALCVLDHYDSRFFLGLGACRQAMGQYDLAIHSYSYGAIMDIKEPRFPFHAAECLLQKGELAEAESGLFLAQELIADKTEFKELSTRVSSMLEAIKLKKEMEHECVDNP

LcrH = biological target: LcrH; parameters: method as in PMID 23233673; details: unbound chaperone weak homodimer; read-out: dimerization KD; cited from earlier work

Row | Molecule | Kd [1] | dH [1] | Kd (LcrH)
1 | QGVQLPAPLA (source: synthetic peptide) [YopB_(48–57) 10 mer N-terminal anchor peptide of the major translocator YopB] | 155 µM | -10.5 kcal/mol | –
2 | QVPELIKPSQ (source: synthetic peptide) [YopD_(56–65) 10 mer N-terminal anchor peptide of the minor translocator YopD] | 82 µM | -12.2 kcal/mol | –
3 | B1 | – | – | ~15 µM
